These results are taken from paper PMC4598119, “Cancer-Related NEET Proteins Transfer 2Fe-2S Clusters to Anamorsin, a Protein Required for Cytosolic Iron-Sulfur Cluster Biogenesis” (PLoS ONE, 2015).

Assay [1] addresses T1, holo-Anamorsin (prepared via cluster transfer from NAF-1), biotinylated (human, UniProt Q6FI81 1-312, biotin).
T1 construct: Anamorsin (CIAPIN-1), human cDNA (Abgent) subcloned into pET28-a(+) between NdeI and XhoI; same chain as m3; also called post-cluster transfer Anamorsin; CIAPIN-1; source: E. coli BL-21 Codon Plus (DE3) RIL, purified; apo form loaded by cluster transfer from NAF-1, then purified from NAF-1 on HiTrap Q anion exchange
Put plainly: BLI; biotinylated holo-Anamorsin (prepared via cluster transfer) immobilised on streptavidin biosensors; 16 uM holo-NAF-1 or 32 uM holo-mNT; association 900 s, dissociation 1800 s; 2:1 heterogeneous ligand model; average of two trials. The conditions noted are these: both partners purified.

For assay [2], the target named is T2, apo-Anamorsin (cytokine induced apoptosis inhibitor-1), biotinylated (human, UniProt Q6FI81 1-312, biotin (EZ-Link Sulfo-NHS-LC-biotin, 2:1 molar ratio of reagent to protein)).
T2 construct: Anamorsin (CIAPIN-1), human cDNA (Abgent) subcloned into pET28-a(+) between NdeI and XhoI; Without clusters; The vector adds a 6x his-tag and a thrombin cleavage site at the N-terminus; no cleavage is described; also called CIAPIN-1; source: E. coli BL-21 Codon Plus (DE3) RIL, purified (Ni-NTA, HiTrap Q anion exchange); 2Fe-2S cluster removed by the method of Kennedy and Beinert
Briefly: BLI; Octet Red96; biotinylated apo-Anamorsin (3.5 uM) immobilised on streptavidin biosensors; holo-NEET in solution; 50 mM bis-tris, 100 mM NaCl, 0.1% Tween 20, 0.5 mg/ml BSA, pH 7.0, without DTT; association 900 s, dissociation 1800 s; 1:1 model. To be noted: both partners purified.

T2 sequence (Q6FI81 whole entry): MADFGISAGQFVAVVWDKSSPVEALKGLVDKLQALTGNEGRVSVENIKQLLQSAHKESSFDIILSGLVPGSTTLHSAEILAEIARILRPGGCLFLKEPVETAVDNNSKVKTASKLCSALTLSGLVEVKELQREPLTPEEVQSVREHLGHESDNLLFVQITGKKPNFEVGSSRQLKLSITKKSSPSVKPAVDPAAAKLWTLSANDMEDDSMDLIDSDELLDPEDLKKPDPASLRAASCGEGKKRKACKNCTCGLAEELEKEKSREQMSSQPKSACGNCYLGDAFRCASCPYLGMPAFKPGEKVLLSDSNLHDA
T1 sequence (Q6FI81 whole entry): as above

B1: mitoNEET (mNT), soluble domain (residues 33-108), holo (domain or fragment, human, UniProt Q9NZ45 33-108, looked up)
chain: RFYVKDHRNKAMINLHIQKDNPKIVHAFDMEDLGDKAVYCRCWRSKKFPFCDGAHTKHNEETGDNVGPLIIKKKET
notes: mitoNEET (CISD1), human, soluble domain, residues 33-108; Homodimer; each protomer holds one 2Fe-2S cluster (3Cys:1His); at least 98% cluster occupancy; also called holo-mNT; CISD1; source: expressed and purified as described previously [19, 23]
B1: the “fold change of koff against apo-Anamorsin” value in assay [1] came out at 50 fold. In assay [2], the koff was 6.17e-05 s⁻¹ and the kon was determined as 317 M⁻¹ s⁻¹.

B2: nutrient-deprivation autophagy factor-1 (NAF-1), soluble domain (residues 57-135), holo (domain or fragment, human, UniProt Q8N5K1 57-135, looked up)
chain: RPFLPKKKQQKDSLINLKIQKENPKVVNEINIEDLCLTKAAYCRCWRSKTFPACDGSHNKHNELTGDNVGPLILKKKEV
notes: NAF-1 (CISD2), human, soluble domain, residues 57-135; Homodimer; each protomer holds one 2Fe-2S cluster (3Cys:1His); at least 98% cluster occupancy; also called holo-NAF-1; miner1; source: expressed and purified as described previously [19, 23]
With B2, in assay [2], the koff was 0.0011 s⁻¹ and the kon was 783 M⁻¹ s⁻¹.
